According to patent publication US20250171512A1:

The substances below were run against human FGFR1c together with human beta-Klotho (KLB), stably expressed on CHO Flp-In cells (human) (UniProt P11362) (assay: cell-based or functional assay).
Chain of human FGFR1c together with human beta-Klotho (KLB), stably expressed on CHO Flp-In cells (human) (P11362 22-822, chain 1 of 2): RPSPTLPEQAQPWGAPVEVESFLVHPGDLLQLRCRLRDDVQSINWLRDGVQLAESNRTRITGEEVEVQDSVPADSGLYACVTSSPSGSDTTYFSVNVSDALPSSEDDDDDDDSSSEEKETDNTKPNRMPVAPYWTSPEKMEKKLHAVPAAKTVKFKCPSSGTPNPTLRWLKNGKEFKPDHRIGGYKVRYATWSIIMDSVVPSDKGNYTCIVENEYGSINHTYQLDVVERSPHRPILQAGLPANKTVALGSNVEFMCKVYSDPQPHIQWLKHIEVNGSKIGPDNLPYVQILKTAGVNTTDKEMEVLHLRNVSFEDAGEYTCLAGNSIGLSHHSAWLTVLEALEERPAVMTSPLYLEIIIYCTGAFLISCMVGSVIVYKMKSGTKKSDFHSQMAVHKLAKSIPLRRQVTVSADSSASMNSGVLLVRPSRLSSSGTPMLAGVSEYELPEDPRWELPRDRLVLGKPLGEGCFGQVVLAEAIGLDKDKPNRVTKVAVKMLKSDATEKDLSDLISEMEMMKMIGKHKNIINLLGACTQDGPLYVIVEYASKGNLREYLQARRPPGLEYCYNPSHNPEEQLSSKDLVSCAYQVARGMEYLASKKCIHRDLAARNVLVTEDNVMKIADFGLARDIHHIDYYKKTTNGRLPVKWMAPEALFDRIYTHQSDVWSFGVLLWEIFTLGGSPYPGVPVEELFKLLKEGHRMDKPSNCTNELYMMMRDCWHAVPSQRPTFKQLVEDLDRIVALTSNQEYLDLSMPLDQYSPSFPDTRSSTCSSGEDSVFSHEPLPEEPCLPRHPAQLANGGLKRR
Chain of human FGFR1c together with human beta-Klotho (KLB), stably expressed on CHO Flp-In cells (human) (Q86Z14 whole entry, chain 2 of 2, further chain): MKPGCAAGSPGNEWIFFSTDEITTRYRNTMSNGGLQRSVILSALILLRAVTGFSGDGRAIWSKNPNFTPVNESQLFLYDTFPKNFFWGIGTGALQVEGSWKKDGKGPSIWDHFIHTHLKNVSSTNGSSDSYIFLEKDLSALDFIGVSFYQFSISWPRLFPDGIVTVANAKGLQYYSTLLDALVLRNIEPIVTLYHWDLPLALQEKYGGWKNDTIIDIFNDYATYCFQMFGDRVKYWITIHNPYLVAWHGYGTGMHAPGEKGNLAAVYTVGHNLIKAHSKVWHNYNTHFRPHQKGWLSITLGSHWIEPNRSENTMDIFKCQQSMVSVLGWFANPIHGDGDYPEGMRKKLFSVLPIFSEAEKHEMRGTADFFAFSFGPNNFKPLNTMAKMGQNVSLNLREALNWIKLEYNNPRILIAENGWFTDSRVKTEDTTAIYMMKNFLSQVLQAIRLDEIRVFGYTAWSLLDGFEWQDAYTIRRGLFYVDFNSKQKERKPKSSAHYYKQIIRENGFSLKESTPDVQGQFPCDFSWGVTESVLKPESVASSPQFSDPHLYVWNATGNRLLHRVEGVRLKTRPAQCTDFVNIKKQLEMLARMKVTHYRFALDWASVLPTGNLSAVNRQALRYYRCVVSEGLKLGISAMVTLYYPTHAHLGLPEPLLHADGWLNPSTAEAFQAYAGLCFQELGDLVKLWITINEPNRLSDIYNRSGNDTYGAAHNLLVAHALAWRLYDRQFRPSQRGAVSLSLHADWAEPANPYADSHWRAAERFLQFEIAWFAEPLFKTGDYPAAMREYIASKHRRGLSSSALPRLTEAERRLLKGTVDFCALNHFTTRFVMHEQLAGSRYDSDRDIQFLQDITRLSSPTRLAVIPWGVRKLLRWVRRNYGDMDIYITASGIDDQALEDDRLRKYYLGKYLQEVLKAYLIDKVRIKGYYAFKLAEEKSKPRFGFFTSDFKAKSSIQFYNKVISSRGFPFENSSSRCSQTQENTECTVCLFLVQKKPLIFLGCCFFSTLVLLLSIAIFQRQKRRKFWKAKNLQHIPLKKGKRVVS

Chain of FGF21 S206 deleted (SEQ ID NO: 67) (Q9NSA1 other isoform, or with tags, fused parts or gaps): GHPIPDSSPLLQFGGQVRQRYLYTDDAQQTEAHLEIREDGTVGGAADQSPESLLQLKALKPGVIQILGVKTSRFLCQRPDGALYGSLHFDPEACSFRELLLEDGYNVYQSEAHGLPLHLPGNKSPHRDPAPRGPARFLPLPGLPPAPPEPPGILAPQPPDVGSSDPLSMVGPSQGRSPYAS
Chain of FGF21 S200 deleted (SEQ ID NO: 61) (Q9NSA1 other isoform, or with tags, fused parts or gaps): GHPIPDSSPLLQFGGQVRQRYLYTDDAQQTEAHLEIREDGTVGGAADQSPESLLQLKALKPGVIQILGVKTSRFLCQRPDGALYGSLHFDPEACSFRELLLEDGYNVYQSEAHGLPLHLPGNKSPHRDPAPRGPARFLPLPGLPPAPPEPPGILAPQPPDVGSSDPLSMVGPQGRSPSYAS
Chain of FGF21 V197 deleted, S201 deleted (SEQ ID NO: 69) (Q9NSA1 other isoform, or with tags, fused parts or gaps): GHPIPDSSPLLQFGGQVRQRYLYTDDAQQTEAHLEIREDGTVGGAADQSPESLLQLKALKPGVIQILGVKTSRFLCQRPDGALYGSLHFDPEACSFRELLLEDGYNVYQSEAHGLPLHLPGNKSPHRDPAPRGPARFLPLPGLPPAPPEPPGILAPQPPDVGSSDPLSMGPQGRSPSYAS
Chain of FGF21 S204 deleted (SEQ ID NO: 65) (Q9NSA1 other isoform, or with tags, fused parts or gaps): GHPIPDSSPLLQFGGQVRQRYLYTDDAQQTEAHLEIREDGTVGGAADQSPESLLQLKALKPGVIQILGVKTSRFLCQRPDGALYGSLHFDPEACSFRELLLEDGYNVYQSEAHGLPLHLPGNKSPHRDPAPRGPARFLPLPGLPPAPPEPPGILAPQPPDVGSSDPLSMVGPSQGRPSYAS
Chain of FGF21 R203 deleted (SEQ ID NO: 64) (Q9NSA1 other isoform, or with tags, fused parts or gaps): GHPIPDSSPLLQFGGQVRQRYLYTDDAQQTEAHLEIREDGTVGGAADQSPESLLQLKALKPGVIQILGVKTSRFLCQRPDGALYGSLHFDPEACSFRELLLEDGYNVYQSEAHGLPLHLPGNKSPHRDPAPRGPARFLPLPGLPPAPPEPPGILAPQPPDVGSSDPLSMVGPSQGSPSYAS
Chain of FGF21, human (SEQ ID NO: 2), with N-terminal tag (Q9NSA1 29-209 L174P): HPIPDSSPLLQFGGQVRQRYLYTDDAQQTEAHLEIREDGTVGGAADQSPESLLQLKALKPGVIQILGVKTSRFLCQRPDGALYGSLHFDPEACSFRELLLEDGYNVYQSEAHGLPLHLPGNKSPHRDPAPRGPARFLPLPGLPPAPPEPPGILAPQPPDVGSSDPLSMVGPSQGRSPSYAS
Chain of FGF21 S191 deleted (SEQ ID NO: 53) (Q9NSA1 other isoform, or with tags, fused parts or gaps): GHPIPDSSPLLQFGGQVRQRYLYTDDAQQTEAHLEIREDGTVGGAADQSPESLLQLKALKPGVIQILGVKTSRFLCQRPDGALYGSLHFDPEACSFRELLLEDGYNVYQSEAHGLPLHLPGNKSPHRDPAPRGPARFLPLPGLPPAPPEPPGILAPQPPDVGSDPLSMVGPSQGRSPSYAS
Chain of FGF21 Y207 deleted (SEQ ID NO: 68) (Q9NSA1 other isoform, or with tags, fused parts or gaps): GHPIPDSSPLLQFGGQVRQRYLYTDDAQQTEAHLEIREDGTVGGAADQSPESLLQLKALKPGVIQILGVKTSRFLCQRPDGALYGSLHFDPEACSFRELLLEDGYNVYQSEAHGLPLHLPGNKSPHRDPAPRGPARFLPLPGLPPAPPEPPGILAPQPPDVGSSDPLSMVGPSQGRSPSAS
Chain of FGF21 V197 deleted (SEQ ID NO: 34) (Q9NSA1 other isoform, or with tags, fused parts or gaps): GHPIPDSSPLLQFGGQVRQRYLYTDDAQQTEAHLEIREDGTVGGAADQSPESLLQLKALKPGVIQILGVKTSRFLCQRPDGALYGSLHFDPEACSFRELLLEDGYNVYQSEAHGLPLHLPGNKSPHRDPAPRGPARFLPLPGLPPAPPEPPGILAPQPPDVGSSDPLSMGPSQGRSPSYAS

| pERK ICW EC50 | Substance |
| --- | --- |
| 6.69 nmol/L | FGF21 R203 deleted (SEQ ID NO: 64) (from UniProt Q9NSA1 29-209) (ligand) |
| 1.44 nmol/L | FGF21 S76C, S79C (SEQ ID NO: 85) (from UniProt Q9NSA1 29-209) (ligand) |
| 0.15 nmol/L | FGF21 S76C, S79C, G198Y (SEQ ID NO: 39) (from UniProt Q9NSA1 29-209) (ligand) |
| 1.25 nmol/L | FGF21 S76C, S79C, P199 deleted (SEQ ID NO: 38) (from UniProt Q9NSA1 29-209) (ligand) |
| 3.87 nmol/L | FGF21 S137C, H140C (SEQ ID NO: 84) (from UniProt Q9NSA1 29-209) (ligand) |
| 97.3 nmol/L | FGF21 S191 deleted (SEQ ID NO: 53) (from UniProt Q9NSA1 29-209) (ligand) |
| 10.8 nmol/L | FGF21 S195C, S200C (SEQ ID NO: 8) (from UniProt Q9NSA1 29-209) (ligand) |
| 1.17 nmol/L | FGF21 S200 deleted (SEQ ID NO: 61) (from UniProt Q9NSA1 29-209) (ligand) |
| 1.62 nmol/L | FGF21 S200Q, Q201S (SEQ ID NO: 25) (from UniProt Q9NSA1 29-209) (ligand) |
| 25.7 nmol/L | FGF21 S204 deleted (SEQ ID NO: 65) (from UniProt Q9NSA1 29-209) (ligand) |
| 31.9 nmol/L | FGF21 S206 deleted (SEQ ID NO: 67) (from UniProt Q9NSA1 29-205) (ligand) |
| 11.7 nmol/L | FGF21 V69C, L110C (SEQ ID NO: 113) (from UniProt Q9NSA1 29-209) (ligand) |
| 68.8 nmol/L | FGF21 V197 deleted (SEQ ID NO: 34) (from UniProt Q9NSA1 29-209) (ligand) |
| 98.7 nmol/L | FGF21 V197 deleted, S201 deleted (SEQ ID NO: 69) (from UniProt Q9NSA1 29-209) (ligand) |
| 78.1 nmol/L | FGF21 V197-R203 deleted and replaced by GLNSMV (SEQ ID NO: 28) (from UniProt Q9NSA1 29-209) (ligand) |
| 85.8 nmol/L | FGF21 V197D, G198V, P199D, S200H (SEQ ID NO: 26) (from UniProt Q9NSA1 29-209) (ligand) |
| 31.4 nmol/L | FGF21 V197E (SEQ ID NO: 14) (from UniProt Q9NSA1 29-209) (ligand) |
| 7.14 nmol/L | FGF21 Y207 deleted (SEQ ID NO: 68) (from UniProt Q9NSA1 29-206) (ligand) |
| 1.03 nmol/L | FGF21, human (SEQ ID NO: 2), with N-terminal tag (from UniProt Q9NSA1 29-209) (ligand) |
